Measured values taken from paper PMC4067148 (Biochemistry, 2014).
Residue numbers refer to the chain shown, from its start. In names and notes the source's numbering stands.

Assays:
[1] = biological target: the molecule itself; experiment: native gel or EMSA
[2] = biological target: the molecule itself; experiment: native gel or EMSA; remark: listed apart in the source

B1: wild-type AcrB (natural protein, Escherichia coli)
chain: MPNFFIDRPIFAWVIAIIIMLAGGLAILKLPVAQYPTIAPPAVTISASYPGADAKTVQDTVTQVIEQNMNGIDNLMYMSSNSDSTGTVQITLTFESGTDADIAQVQVQNKLQLAMPLLPQEVQQQGVSVEKSSSSFLMVVGVINTDGTMTQEDISDYVAANMKDAISRTSGVGDVQLFGSQYAMRIWMNPNELNKFQLTPVDVITAIKAQNAQVAAGQLGGTPPVKGQQLNASIIAQTRLTSTEEFGKILLKVNQDGSRVLLRDVAKIELGGENYDIIAEFNGQPASGLGIKLATGANALDTAAAIRAELAKMEPFFPSGLKIVYPYDTTPFVKISIHEVVKTLVEAIILVFLVMYLFLQNFRATLIPTIAVPVVLLGTFAVLAAFGFSINTLTMFGMVLAIGLLVDDAIVVVENVERVMAEEGLPPKEATRKSMGQIQGALVGIAMVLSAVFVPMAFFGGSTGAIYRQFSITIVSAMALSVLVALILTPALCATMLKPIAKGDHGEGKKGFFGWFNRMFEKSTHHYTDSVGGILRSTGRYLVLYLIIVVGMAYLFVRLPSSFLPDEDQGVFMTMVQLPAGATQERTQKVLNEVTHYYLTKEKNNVESVFAVNGFGFAGRGQNTGIAFVSLKDWADRPGEENKVEAITMRATRAFSQIKDAMVFAFNLPAIVELGTATGFDFELIDQAGLGHEKLTQARNQLLAEAAKHPDMLTSVRPNGLEDTPQFKIDIDQEKAQALGVSINDINTTLGAAWGGSYVNDFIDRGRVKKVYVMSEAKYRMLPDDIGDWYVRAADGQMVPFSAFSSSRWEYGSPRLERYNGLPSMEILGQAAPGKSTGEAMELMEQLASKLPTGVGYDWTGMSYQERLSGNQAPSLYAISLIVVFLCLAALYESWSIPFSVMLVVPLGVIGALLAATFRGLTNDVYFQVGLLTTIGLSAKNAILIVEFAKDLMDKEGKGLIEATLDAVRMRLRPILMTSLAFILGVMPLVISTGAGSGAQNAVGTGVMGGMVTATVLAIFFVPVFFVVVRRRFSRKNEDIEHSHTVDHH
- KX (trimer association constant, mole fraction) [1]: 1.6e+09

B2: AcrB_(L886G/E893G) (natural protein, Escherichia coli)
chain: B1 chain with L886G, E893G
- KX (trimer association constant, mole fraction) [1]: 1e+07
- stoichiometry N [2]: 3

B3: AcrB_(W895G) (natural protein, Escherichia coli)
chain: B1 chain with W895G
- KX (trimer association constant, mole fraction) [1]: 2.2e+07
- stoichiometry N [2]: 3

B4: AcrB_(L886G) (natural protein, Escherichia coli)
chain: B1 chain with L886G
- KX (trimer association constant, mole fraction) [1]: 1.4e+07
- stoichiometry N [2]: 3

B5: AcrB_(E893G) (natural protein, Escherichia coli)
chain: B1 chain with E893G
- KX (trimer association constant, mole fraction) [1]: 3.2e+09
- stoichiometry N [2]: 3

B6: AcrB_(L886G/E893G/W895G) (natural protein, Escherichia coli)
chain: B1 chain with L886G, E893G, W895G
- KX (trimer association constant, mole fraction) [1]: 1e+07
- stoichiometry N [2]: 3

B7: AcrB_(E893G/W895G) (natural protein, Escherichia coli)
chain: B1 chain with E893G, W895G
- KX (trimer association constant, mole fraction) [1]: 8.6e+06
- stoichiometry N [2]: 3
